This note sets out measurements from patent publication US20060030020A1.

Bounds are passed on as bounds.

The target of experiment [1] is mouse monoclonal anti-β-gal antibody (Promega, Madison, Wis.). The experiment in a line: affinity selection on wells coated with anti-β-gal antibody; input λβ-gal/λV′sac 10^4/10^7.
Experiment [2] has the same target. Description: affinity selection on wells coated with anti-β-gal antibody, collagenase elution, plaques counted on X-gal; input λβ-gal/λV′sac 10^3/10^10.
For experiment [3] the target is unchanged. The experiment in a line: affinity selection on wells coated with anti-β-gal antibody; input λβ-gal/λV′sac 10^3/10^10.
Experiment [4] shares this target. Description: single round of affinity selection on wells coated with anti-β-gal antibodies.
Experiment [5] shares this target. The experiment in a line: affinity selection on wells coated with anti-β-gal antibody, collagenase elution, plaques counted on X-gal; input λβ-gal/λV′sac 10^4/10^8.
The target is the same in experiment [6]. Description: affinity selection on wells coated with anti-β-gal antibody, collagenase elution, plaques counted on X-gal; input λβ-gal/λV′sac 10^4/10^10.
For experiment [7] the target is unchanged. Description: affinity selection on wells coated with anti-β-gal antibody, collagenase elution, plaques counted on X-gal; input λβ-gal/λV′sac 10^3/10^9.
For experiment [8] the target is unchanged. Description: affinity selection on wells coated with anti-β-gal antibody; input λβ-gal/λV′sac 10^4/10^8.
Experiment [9] shares this target. The experiment in a line: affinity selection on wells coated with anti-β-gal antibody, collagenase elution, plaques counted on X-gal; input λβ-gal/λV′sac 10^4/10^9.
Experiment [10] has the same target. The experiment in a line: affinity selection on wells coated with anti-β-gal antibody; input λβ-gal/λV′sac 10^3/10^7.
Experiment [11] has the same target. The experiment in a line: affinity selection on wells coated with anti-β-gal antibody; input λβ-gal/λV′sac 10^3/10^9.
For experiment [12] the target is unchanged. Description: affinity selection on wells coated with anti-β-gal antibody, collagenase elution, plaques counted on X-gal; input λβ-gal/λV′sac 10^4/10^7.
For experiment [13] the target is unchanged. Description: affinity selection on wells coated with anti-β-gal antibody, collagenase elution, plaques counted on X-gal; input λβ-gal/λV′sac 10^3/10^8.
The target is the same in experiment [14]. The experiment in a line: affinity selection on wells coated with anti-β-gal antibody; input λβ-gal/λV′sac 10^4/10^10.
For experiment [15] the target is unchanged. Description: affinity selection on wells coated with anti-β-gal antibody; input λβ-gal/λV′sac 10^3/10^8.
Experiment [16] has the same target. Description: affinity selection on wells coated with anti-β-gal antibody, collagenase elution, plaques counted on X-gal; input λβ-gal/λV′sac 10^3/10^7.
For experiment [17] the target is unchanged. The experiment in a line: affinity selection on wells coated with anti-β-gal antibody; input λβ-gal/λV′sac 10^3/10^6.
Experiment [18] shares this target. Description: affinity selection on wells coated with anti-β-gal antibody, collagenase elution, plaques counted on X-gal; input λβ-gal/λV′sac 10^3/10^6.
The target is the same in experiment [19]. Description: affinity selection on wells coated with anti-β-gal antibody; input λβ-gal/λV′sac 10^4/10^9.
The target of experiment [20] is mucin of bovine submaxillary glands (Sigma, St. Louis, Mo.) (bovine). Description: affinity selection on wells coated with mucin, 1 mM CaCl2, collagenase elution.

As to “λβ-gal phage particles grown on MC8 (su+), displaying the β-gal multimer (pV′-β-gal fusion protein assembled with β-gal monomers) on the phage tail (from UniProt P00722 10-1024)”, the Enrichment (fold over λV′sac) in [1] was determined as 16000; in [3], 530000; in experiment [8], 170000; in [10], 2000; in experiment [11], 280000; in [14], 770000. The Enrichment (fold over λV′sac) in experiment [15] is 80000; in experiment [17], above 8000; in [19], 300000. Also, the Output Phage in experiment [2] is 5 plaques; in [5] it was 168 plaques; in [6], 129 plaques; in experiment [7] it was 99 plaques; in experiment [9] it was 108 plaques; in experiment [12], 96 plaques. The values for the Output Phage in experiment [13], in [16] and in [18] were 8 plaques, 10 plaques and 8 plaques, respectively. For the same molecule, the average efficiency of recovery (% of the input phage) in [4] stood at 1.

B1: λBPA phage particles grown on MC8 (su+), displaying the BPA (Bauhinia purpurea lectin) multimer (pV′-BPA fusion protein assembled with BPA monomers) (protein, part only; not given: amber residue and junction residues, part only)
chain, part: MPVPNPTMPVKGAGTTLWVYKGSGDPYANPLSDVDWSRLAKVKDLTPGELTAESYDDSYLDDEDADWTATGQGQKSAGDTSFTLAWMPGEQGQQALLAWFNEGDTRAYKIRFPNGTVDVFRGWVSSIGKAVTAKEVITRTVKVTNVGRPSMAEDRSTVTAATGMTVTPASTSVVKGSWPVRPTPTPTTPTPTPTPTPTPTPTVGPIVTQETATSSTLTGFTFPNFWSNTQENGTEIIFLGNATYTPGALRLTRIGEDGIPLKSNAGQASYSRPVFLWDSTGHVASFYTSFSFIVRSIDVPHITADGFAFFLAPVDSSVKDYGGCLGLFRYKTATDPSKNQVVAVEFDTWPNTEWSDLRYPHIGINVNSTVSVATTRWDNDDAYVTKSTAHITYDATSKIITVLLTYDNGRHYQLSHVVDLPKILPERVRIGFSGGTGFNETQYILSWSFTSTLNSTKISALTQKLRSSASYSSM
chain: TSSTLTGFTFPNFWSNTQENGTEIIFLGNATYTPGALRLTRIGEDGIPLKSNAGQASYSRPVFLWDSTGHVASFYTSFSFIVRSIDVPHITADGFAFFLAPVDSSVKDYGGCLGLFRYKTATDPSKNQVVAVEFDTWPNTEWSDLRYPHIGINVNSTVSVATTRWDNDDAYVTKSTAHITYDATSKIITVLLTYDNGRHYQLSHVVDLPKILPERVRIGFSGGTGFNETQYILSWSFTSTLNSTKISALTQKLRSSASYSSM
For B1, the recovery of input phage (% of input phage) in experiment [20] is 0.01.

B2: λV′sac phage particles grown on MC8 (su+), reference phage (protein)
chain: MPVPNPTMPVKGAGTTLWVYKGSGDPYANPLSDVDWSRLAKVKDLTPGELTAESYDDSYLDDEDADWTATGQGQKSAGDTSFTLAWMPGEQGQQALLAWFNEGDTRAYKIRFPNGTVDVFRGWVSSIGKAVTAKEVITRTVKVTNVGRPSMAEDRSTVTAATGMTVTPASTSVVKG
For the molecule B2, the Output Phage in [2] amounted to 106 plaques; in experiment [5], 25 plaques; in [6] it was 162 plaques; in [7], 32 plaques; in [9], 39 plaques; in experiment [12], 6 plaques. The Output Phage came to 11 plaques in experiment [13], 5 plaques in experiment [16] and 0 plaques in experiment [18].
